Earlier results on one substance are cited in paper PMC2678197 (Chemistry & biology, 2009).

The data set deals with eotaxin (Homo sapiens, UniProt P51671). To be noted: read-out: equilibrium dissociation constant (Kd); binding to eotaxin; ref [26].
Chain of eotaxin (P51671 24-97): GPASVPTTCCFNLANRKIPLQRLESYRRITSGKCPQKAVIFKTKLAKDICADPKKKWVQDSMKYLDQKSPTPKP

The term Kd denotes a measure of binding affinity in units of concentration. In the case of “35-residue non-sulfated peptide: 35-residue non-sulfated peptide corresponding to the complete N-terminal region of CCR3 (MTTSLDTVETFGTTSYYDDVGLLCEKADTRALMAQ; unsulfated; the limits 1-35 are inferred from '35-residue' and 'complete N-terminal region')”, the Kd was 80 ± 38 µM.
